The source of these data is the supplement of paper PMC11316812.

± gives the standard deviation of the averaged measurements.

One series relates to MCF7. In words: percentage of EdU-negative (G0-arrested) nuclei per well, 72 h; higher = more G0 arrest. The note with it: reference: sequence is the full UniProt precursor, the tested protein was the secreted form or ectodomain.
A further series concerns hTERT-HMEC. The description is as above. The following applies: reference: sequence is the full UniProt precursor, the tested protein was the secreted form or ectodomain.
The mark [1] stands for this setting: protein concentration 0.0111425 µM.
The mark [2] stands for this setting: protein concentration 0.111425 µM.
Where [3] appears, read: protein concentration 0.03125 µM.
[4] abbreviates: protein concentration 0.3125 µM.
Setting [5] is: protein concentration 0.00875 µM.
Where [6] appears, read: protein concentration 0.0875 µM.
The mark [7] stands for this setting: protein concentration 0.0225 µM.
Setting [8] is: protein concentration 0.0155 µM.
The mark [9] stands for this setting: protein concentration 0.0357143 µM.
[10] abbreviates: protein concentration 0.357143 µM.
[11] abbreviates: protein concentration 0.01075 µM.
Setting [12] is: protein concentration 0.1075 µM.
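Note: secreted proteins added to cultured cells, EdU pulse at the end, nuclei found by Hoechst imaging, EdU status from nuclear versus surrounding ring intensity ratio, PBS as neutral control.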

For “MVLLWEPAGAWLALGLALALGPSVAAAAPRQDCTGVECPPLENCIEEALEPGACCATCVQQGCACEGYQYYDCLQGGFVRGRVPAGQSYFVDFGSTECSCPPGGGKISCQFMLCPELPPNCIEAVVVADSCPQCGQVGCVHAGHKYAAGHTVHLPPCRACHCPDAGGELICYQLPGCHGNFSDAEEGDPERHYEDPYSYDQEVAEVEAATALGGEVQAGAVQAGAGGPPAALGGGSQPLSTIQAPPWPAVLPRPTAAAALGPPAPVQAKARRVTEDSEEEEEEEEEREEMAVTEQLAAGGHRGLDGLPTTAPAGPSLPIQEERAEAGARAEAGARPEENLILDAQATSRSTGPEGVTHAPSLGKAALVPTQAVPGSPRDPVKPSPHNILSTSLPDAAWIPPTREVPRKPQVLPHSHVEEDTDPNSVHSIPRSSPEGSTKDLIETCCAAGQQWAIDNDECLEIPESGTEDNVCRTAQRHCCVSYLQEKSCMAGVLGAKEGETCGAEDNDSCGISLYKQCCDCCGLGLRVRAEGQSCESNPNLGYPCNHVMLSCCEGEEPLIVPEVRRPPEPAAAPRRVSEAEMAGREALSLGTEAELPNSLPGDDQDECLLLPGELCQHLCINTVGSYHCACFPGFSLQDDGRTCRPEGHPPQPEAPQEPALKSEFSQVASNTIPLPLPQPNTCKDNGPCKQVCSTVGGSAICSCFPGYAIMADGVSCEDINECVTDLHTCSRGEHCVNTLGSFHCYKALTCEPGYALKDGECEDVDECAMGTHTCQPGFLCQNTKGSFYCQARQRCMDGFLQDPEGNCVDINECTSLSEPCRPGFSCINTVGSYTCQRNPLICARGYHASDDGTKCVDVNECETGVHRCGEGQVCHNLPGSYRCDCKAGFQRDAFGRGCIDVNECWASPGRLCQHTCENTLGSYRCSCASGFLLAADGKRCEDVNECEAQRCSQECANIYGSYQCYCRQGYQLAEDGHTCTDIDECAQGAGILCTFRCLNVPGSYQCACPEQGYTMTANGRSCKDVDECALGTHNCSEAETCHNIQGSFRCLRFECPPNYVQVSKTKCERTTCHDFLECQNSPARITHYQLNFQTGLLVPAHIFRIGPAPAFTGDTIALNIIKGNEEGYFGTRRLNAYTGVVYLQRAVLEPRDFALDVEMKLWRQGSVTTFLAKMHIFFTTFAL”, the “percentage of EdU-negative” value is 23.7 ± 1.3% in the series with MCF7 (setting [1]), 25.1 ± 2.6% in the series on MCF7 (setting [2]), 5.72 ± 0.17% in the series with hTERT-HMEC (setting [1]) and 6.99 ± 0.78% in the series on hTERT-HMEC (setting [2]).

As to “MVLLWLTLLLIALPCLLQTKEDPNPPITNLRMKAKAQQLTWDLNRNVTDIECVKDADYSMPAVNNSYCQFGAISLCEVTNYTVRVANPPFSTWILFPENSGKPWAGAENLTCWIHDVDFLSCSWAVGPGAPADVQYDLYLNVANRRQQYECLHYKTDAQGTRIGCRFDDISRLSSGSQSSHILVRGRSAAFGIPCTDKFVVFSQIEILTPPNMTAKCNKTHSFMHWKMRSHFNRKFRYELQIQKRMQPVITEQVRDRTSFQLLNPGTYTVQIRARERVYEFLSAWSTPQRFECDQEEGANTRAWRTSLLIALGTLLALVCVFVICRRYLVMQRLFPRIPHMKDPIGDSFQNDKLVVWEAGKAGLEECLVTEVQVVQKT”, the “percentage of EdU-negative” value with MCF7 (setting [3]) stood at 26.3 ± 2.9%; in the series with MCF7 (setting [4]), 30.4 ± 0.99%; with hTERT-HMEC (setting [3]), 4.403 ± 0.019%; in the series with hTERT-HMEC (setting [4]), 5.4 ± 0.13%.

In the case of “MVLWESPRQCSSWTLCEGFCWLLLLPVMLLIVARPVKLAAFPTSLSDCQTPTGWNCSGYDDRENDLFLCDTNTCKFDGECLRIGDTVTCVCQFKCNNDYVPVCGSNGESYQNECYLRQAACKQQSEILVVSEGSCATDAGSGSGDGVHEGSGETSQKETSTCDICQFGAECDEDAEDVWCVCNIDCSQTNFNPLCASDGKSYDNACQIKEASCQKQEKIEVMSLGRCQDNTTTTTKSEDGHYARTDYAENANKLEESAREHHIPCPEHYNGFCMHGKCEHSINMQEPSCRCDAGYTGQHCEKKDYSVLYVVPGPVRFQYVLIAAVIGTIQIAVICVVVLCITRKCPRSNRIHRQKQNTGHYSSDNTTRASTRLI [Q9UIK5]”, the “percentage of EdU-negative” value in the series with MCF7 (setting [5]) came to 23.6 ± 4.7%; in the series on MCF7 (setting [6]), 28.2 ± 2%; in the series with hTERT-HMEC (setting [5]), 5.34 ± 0.33%; with hTERT-HMEC (setting [6]) it was 11.1 ± 2.2%.

For “MVMLLLLLSALAGLFGAAEGQAFHLGKCPNPPVQENFDVNKYLGRWYEIEKIPTTFENGRCIQANYSLMENGKIKVLNQELRADGTVNQIEGEATPVNLTEPAKLEVKFSWFMPSAPYWILATDYENYALVYSCTCIIQLFHVDFAWILARNPNLPPETVDSLKNILTSNNIDVKKMTVTDQVNCPKLS”, the “percentage of EdU-negative” value with MCF7 (setting [7]) was 24.66 ± 0.099%; with MCF7 (protein concentration 0.225 µM) it was 25.9 ± 3%; with hTERT-HMEC (setting [7]), 4.945 ± 0.022%; in the series on hTERT-HMEC (protein concentration 0.225 µM), 4.745 ± 0.02%.

On to “MVMRPLWSLLLWEALLPITVTGAQVLSKVGGSVLLVAARPPGFQVREAIWRSLWPSEELLATFFRGSLETLYHSRFLGRAQLHSNLSLELGPLESGDSGNFSVLMVDTRGQPWTQTLQLKVYDAVPRPVVQVFIAVERDAQPSKTCQVFLSCWAPNISEITYSWRRETTMDFGMEPHSLFTDGQVLSISLGPGDRDVAYSCIVSNPVSWDLATVTPWDSCHHEAAPGKASYKDVLLVVVPVSLLLMLVTLFSAWHWCPCSGKKKKDVHADRVGPETENPLVQDLP [Q9P0V8]”, for which the “percentage of EdU-negative” value was determined as 34.5 ± 7.9% with MCF7 (setting [7]), 28.8 ± 0.29% with MCF7 (protein concentration 0.225 µM), 7.18 ± 1.4% with hTERT-HMEC (setting [7]) and 4 ± 0.28% in the series on hTERT-HMEC (protein concentration 0.225 µM).

With “MVNLAAMVWRRLLRKRWVLALVFGLSLVYFLSSTFKQEERAVRDRNLLQVHDHNQPIPWKVQFNLGNSSRPSNQCRNSIQGKHLITDELGYVCERKDLLVNGCCNVNVPSTKQYCCDGCWPNGCCSAYEYCVSCCLQPNKQLLLERFLNRAAVAFQNLFMAVEDHFELCLAKCRTSSQSVQHENTYRDPIAKYCYGESPPELFPA [Q9H741]”, the “percentage of EdU-negative” value in the series with MCF7 (setting [7]) is 26.4 ± 1.1%; with MCF7 (protein concentration 0.225 µM) it was 27 ± 2.9%; with hTERT-HMEC (setting [7]), 5.34 ± 0.37%; with hTERT-HMEC (protein concentration 0.225 µM), 7.52 ± 0.6%.

“MVPAAGALLWVLLLNLGPRAAGAQGLTQTPTEMQRVSLRFGGPMTRSYRSTARTGLPRKTRIILEDENDAMADADRLAGPAAAELLAATVSTGFSRSSAINEEDGSSEEGVVINAGKDSTSRELPSATPNTAGSSSTRFIANSQEPEIRLTSSLPRSPGRSTEDLPGSQATLSQWSTPGSTPSRWPSPSPTAMPSPEDLRLVLMPWGPWHCHCKSGTMSRSRSGKLHGLSGRLRVGALSQLRTEHKPCTYQQCPCNRLREECPLDTSLCTDTNCASQSTTSTRTTTTPFPTIHLRSSPSLPPASPCPALAFWKRVRIGLEDIWNSLSSVFTEMQPIDRNQR [Q9BUN1]”: the “percentage of EdU-negative” value in the series on MCF7 (setting [5]) turned out to be 25.2 ± 0.46%; in the series with MCF7 (setting [6]), 26.9 ± 2.7%; with hTERT-HMEC (setting [5]), 4.62 ± 0.76%; with hTERT-HMEC (setting [6]), 10.6 ± 1.3%.

Turning to “MVPEEEPQDREKGLWWFQLKVWSMAVVSILLLSVCFTVSSVVPHNFMYSKTVKRLSKLREYQQYHPSLTCVMEGKDIEDWSCCPTPWTSFQSSCYFISTGMQSWTKSQKNCSVMGADLVVINTREEQDFIIQNLKRNSSYFLGLSDPGGRRHWQWVDQTPYNENVTFWHSGEPNNLDERCAIINFRSSEEWGWNDIHCHVPQKSICKMKKIYI [Q8WTT0]”, the “percentage of EdU-negative” value was determined as 27.712 ± 0.0085% with MCF7 (setting [7]), 26.5 ± 0.9% in the series on MCF7 (protein concentration 0.225 µM), 4.78 ± 0.84% in the series on hTERT-HMEC (setting [7]) and 4.64 ± 1% in the series with hTERT-HMEC (protein concentration 0.225 µM).

Take “MVPEVRVLSSLLGLALLWFPLDSHARARPDMFCLFHGKRYSPGESWHPYLEPQGLMYCLRCTCSEGAHVSCYRLHCPPVHCPQPVTEPQQCCPKCVEPHTPSGLRAPPKSCQHNGTMYQHGEIFSAHELFPSRLPNQCVLCSCTEGQIYCGLTTCPEPGCPAPLPLPDSCCQACKDEASEQSDEEDSVQSLHGVRHPQDPCSSDAGRKRGPGTPAPTGLSAPLSFIPRHFRPKGAGSTTVKIVLKEKHKKACVHGGKTYSHGEVWHPAFRAFGPLPCILCTCEDGRQDCQRVTCPTEYPCRHPEKVAGKCCKICPEDKADPGHSEISSTRCPKAPGRVLVHTSVSPSPDNLRRFALEHEASDLVEIYLWKLVKGIFHLTQIKKVRKQDFQKEAQHFRLLAGPHEGHWNVFLAQTLELKVTASPDKVTKT [Q6WN34]”: the “percentage of EdU-negative” value with MCF7 (setting [8]) is 25.2 ± 1.1%; with MCF7 (protein concentration 0.155 µM), 27.3 ± 1.6%; with hTERT-HMEC (setting [8]), 5.6 ± 0.62%; with hTERT-HMEC (protein concentration 0.155 µM), 7.92 ± 0.96%.

Consider “MVPKLFTSQICLLLLLGLLAVEGSLHVKPPQFTWAQWFETQHINMTSQQCTNAMQVINNYQRRCKNQNTFLLTTFANVVNVCGNPNMTCPSNKTRKNCHHSGSQVPLIHCNLTTPSPQNISNCRYAQTPANMFYIVACDNRDQRRDPPQYPVVPVHLDRII”, for which the “percentage of EdU-negative” value stood at 24.9 ± 1.8% in the series on MCF7 (setting [9]), 27 ± 0.65% with MCF7 (setting [10]), 4.435 ± 0.01% with hTERT-HMEC (setting [9]) and 5.25 ± 0.32% in the series on hTERT-HMEC (setting [10]).

Consider “MVPKLFTSQICLLLLLGLMGVEGSLHARPPQFTRAQWFAIQHISLNPPRCTIAMRAINNYRWRCKNQNTFLRTTFANVVNVCGNQSIRCPHNRTLNNCHRSRFRVPLLHCDLINPGAQNISNCTYADRPGRRFYVVACDNRDPRDSPRYPVVPVHLDTTI”, for which the “percentage of EdU-negative” value with MCF7 (protein concentration 0.022 µM) is 26.3 ± 2.1%; in the series with MCF7 (protein concentration 0.22 µM) it was 25.35 ± 0.13%; in the series on hTERT-HMEC (protein concentration 0.022 µM), 5.32 ± 0.8%; in the series on hTERT-HMEC (protein concentration 0.22 µM), 6.25 ± 2.1%.

In the case of “MVPRIFAPAYVSVCLLLLCPREVIAPAGSEPWLCQPAPRCGDKIYNPLEQCCYNDAIVSLSETRQCGPPCTFWPCFELCCLDSFGLTNDFVVKLKVQGVNSQCHSSPISSKCESRRRFP [Q6UWQ7]”, the “percentage of EdU-negative” value in the series with MCF7 (setting [11]) stood at 24.7 ± 0.71%; in the series with MCF7 (setting [12]) it was 25.6 ± 1.1%; with hTERT-HMEC (setting [11]) it was 5.54 ± 1.2%; with hTERT-HMEC (setting [12]) it was 6.18 ± 1.3%.

In the case of “MVPRISAAIFIFELLGSNSEGVTDLRLWLCQPAPRCGEWTYNPLEQCCDDGVILDLNQTRLCGSSCTFWPCFQHCCLESLGSQNQTVVRFKVPGMKPDCKSSPITRICAQEYHPKSPVSRSDLI [Q6B9Z1]”, the “percentage of EdU-negative” value with MCF7 (setting [7]) is 24.3 ± 0.92%; in the series on MCF7 (protein concentration 0.225 µM), 24.9 ± 0.9%; in the series on hTERT-HMEC (setting [7]), 4.65 ± 1.1%; in the series on hTERT-HMEC (protein concentration 0.225 µM) it was 5.64 ± 0.86%.
